Reference: publication PMC9929924, “Phosphorylation of the receptor protein Pex5p modulates import of proteins into peroxisomes” (Biological Chemistry, 2022)
Ends that are not written are not given here. * marks the point of attachment. FITC = O=C1OC2(c3ccc(O)cc3Oc3cc(O)ccc32)c2ccc(NC(=S)*)cc21

Legend:
yeast peroxisomes = details: under both glucose and oleate condition; ref Rosenthal et al. 2020; cited from earlier work
Excerpt: We classified PTS1-proteins into three different categories according to the observed import phenotypes. […] In contrast, peroxisomal NADP-dependent isocitrate dehydrogenase (Idp3p; Figure 4C) and malate synthase 1 (Mls1p; Figure 4D) belong to category 2 characterized by no peroxisomal import (Supplementary Fi ...

Pex5p^2D cells = experiment: Fluorescence microscopy, peroxisomal import of GFP-tagged proteins in Pex5p^2D-expressing cells; assay type: cell-based, S. cerevisiae; set-up: key to import phenotype category: showed a reduced peroxisomal import and constitute category 1; category 2 characterized by no peroxisomal import; without a noticeable effect on import in Pex5p^2D cells (category 3); details: GFP-tagged protein, Pex5p^2D-expressing cells; Pex3p-mCherry marker; SD medium, 2% glucose; assessed manually
Excerpt: Query strains were constructed on the basis of an automated mating compatible strain. The query strains contained a peroxisomal marker (Pex3p-mCherry::HIS), a deletion of PEX5 (pex5Δ::NAT) and a plasmid expressing WT or mutant PEX5 (PEX5^WT, PEX5^2D or PEX5^2A). Using an automated mating method ([Cohen and Schuldiner 2011]; [Tong and Boone 2006]), the query strains were crossed with a NOP1pr-N′-GFP-peroxi library ([Dahan et al. 2017]). The NOP1pr-N′-GFP-peroxisomal library is a collection of ∼90 strains containing all the known peroxisomal proteins together with potential peroxisomal proteins and controls, genomically tagged with GFP at their N-terminus and expressed under the generic constitutive SpNOP1 promoter. To perform the manipulations in high-density format we used a RoToR bench top colony arrayer (Singer Instruments). In short: mating was performed on rich medium plates, and selection for diploid cells was performed on SD(MSG)-HIS-URA plates containing Geneticin (200 μg ml^−1) and Nourseothricin (200 μg ml^−1). Sporulation was induced by transferring cells to nitrogen starvation media plates for 7 days. Haploid cells containing the desired mutations were selected by transferring cells to SD-URA-HIS-LYS-ARG-LEU plates containing Geneticin and Nourseothricin (same concentrations as above), alongside the toxic amino acid derivatives Canavanine and Thialysine (Sigma-Aldrich) to select against remaining diploids and select for spores with an α mating type. A similar method was used to generate control, pex5Δ, and pex8Δ strains expressing GFP-Mdh3p (Supplementary Figure 4D), in which the query strain contained a peroxisomal marker (Pex3p-mCherry::NAT) and URA3::GFP-Mdh3p. This query strain was crossed with three strains from the mini peroxisomal deletion library ([Gabay-Maskit et al. 2020]): a control (no deletion), pex5Δ, and pex8Δ strain, all of which contain KAN (Geneticin) resistance.
The yeast collections were visualized using an automated microscopy setup as described previously ([Breker et al. 2013]). In short: cells were transferred from agar plates into 384-well polystyrene plates (Greiner) for growth in liquid media using the RoToR arrayer robot. Liquid cultures were grown in a LiCONiC incubator, overnight at 30 °C in SD-URA-HIS medium. A JANUS liquid handler (PerkinElmer) connected to the incubator was used to dilute the strains to an OD600 of ∼0.2 into plates containing SD medium (6.7 g l^−1 yeast nitrogen base and 2% glucose) supplemented with complete amino acids. Plates were incubated at 30 °C for 4 h. The cultures in the plates were then transferred by the liquid handler into glass-bottom 384-well microscope plates (Matrical Bioscience) coated with Concanavalin A (Sigma-Aldrich). After 20 min, cells were washed three times with SD-Riboflavin complete medium to remove non-adherent cells and to obtain a cell monolayer. The plates were then transferred to the ScanR automated inverted fluorescent microscope system (Olympus) using a robotic swap arm (Hamilton). Images of cells in the 384-well plates were recorded in the same liquid as the washing step at 24 °C using a 60× air lens (NA 0.9) and with an ORCA-ER charge-coupled device camera (Hamamatsu). Images were acquired in two channels: GFP (excitation filter 490/20 nm, emission filter 535/50 nm) and mCherry (excitation filter 572/35 nm, emission filter 632/60 nm). All images were taken at a single focal plane. The same protocol was used to visualize fluorescence signals in GFP-Mdh3p-expressing control, pex5Δ, and pex8Δ strains (Supplementary Figure 4D).

pex8Δ cells = details: ref Rehling et al. 2000; cited from earlier work
Excerpt: Among the proteins with reduced peroxisomal import in Pex5p^2D cells (category 1) is Pex8p, an essential component of the import machinery for peroxisomal matrix proteins and required for the biogenesis of functional peroxisomes ([Agne et al. 2003]; [Rehling et al. 2000]), which may raise the question if the reduced import of most PTS1 proteins in Pex5p^2D cells is a consequence of decreased peroxisomal Pex8p levels.

[1] = target: T1, Pex5p-S507/523D, recombinant His6-tagged phospho-mimicking mutant (S. cerevisiae, UniProt P35056 1-612, S507D | S523D); experiment: fluorescence polarisation; fluorescence anisotropy; 10 nM FITC-labelled peptide, serial dilutions of Pex5p variant 1.5 nM to 6.6 µM; 50 mM HEPES pH 7.5, 150 mM NaCl; one-site binding-saturation fit; details: both partners purified
T1 construct: Pex5p, PTS1 receptor of Saccharomyces cerevisiae, UniProtKB P35056, full length, with S507D and S523D; No cleavage of the His tag is described; the native MS mass of the monomer is printed as 71.515 kDa; also called Pex5p^2D; Pex5p-S507D/523D; source: E. coli BL21 RIL (DE3), purified (Ni-NTA, MonoQ anion exchange, SEC)
T1 sequence (looked up): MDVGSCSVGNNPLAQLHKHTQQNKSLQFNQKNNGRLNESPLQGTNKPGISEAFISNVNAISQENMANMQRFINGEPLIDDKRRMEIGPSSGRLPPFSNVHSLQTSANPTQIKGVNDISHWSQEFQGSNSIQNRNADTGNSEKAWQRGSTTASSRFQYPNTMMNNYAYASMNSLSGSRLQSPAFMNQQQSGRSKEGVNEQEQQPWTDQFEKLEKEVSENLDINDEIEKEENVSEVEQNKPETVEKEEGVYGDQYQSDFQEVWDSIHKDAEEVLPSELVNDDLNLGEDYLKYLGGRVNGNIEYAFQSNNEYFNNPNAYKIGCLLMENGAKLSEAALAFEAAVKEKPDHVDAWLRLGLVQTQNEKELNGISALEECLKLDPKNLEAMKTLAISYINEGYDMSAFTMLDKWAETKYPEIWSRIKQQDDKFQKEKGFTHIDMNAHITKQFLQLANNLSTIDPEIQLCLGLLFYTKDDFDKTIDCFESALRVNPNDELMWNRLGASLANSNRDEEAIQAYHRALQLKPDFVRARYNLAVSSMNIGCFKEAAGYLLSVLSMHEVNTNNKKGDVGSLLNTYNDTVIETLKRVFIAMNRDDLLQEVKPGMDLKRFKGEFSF

[2] = target: T2, Pex5p wildtype, recombinant His6-tagged (HisPex5p) (S. cerevisiae, UniProt P35056 1-612); experiment: as above; details: both partners purified
T2 construct: Pex5p, PTS1 receptor of Saccharomyces cerevisiae, UniProtKB P35056, full length; No cleavage of the His tag is described; the native MS mass of the monomer is printed as 71.459 kDa; also called Pex5p^WT; source: E. coli BL21 RIL (DE3), purified (Ni-NTA, MonoQ anion exchange, SEC)
T2 sequence (looked up): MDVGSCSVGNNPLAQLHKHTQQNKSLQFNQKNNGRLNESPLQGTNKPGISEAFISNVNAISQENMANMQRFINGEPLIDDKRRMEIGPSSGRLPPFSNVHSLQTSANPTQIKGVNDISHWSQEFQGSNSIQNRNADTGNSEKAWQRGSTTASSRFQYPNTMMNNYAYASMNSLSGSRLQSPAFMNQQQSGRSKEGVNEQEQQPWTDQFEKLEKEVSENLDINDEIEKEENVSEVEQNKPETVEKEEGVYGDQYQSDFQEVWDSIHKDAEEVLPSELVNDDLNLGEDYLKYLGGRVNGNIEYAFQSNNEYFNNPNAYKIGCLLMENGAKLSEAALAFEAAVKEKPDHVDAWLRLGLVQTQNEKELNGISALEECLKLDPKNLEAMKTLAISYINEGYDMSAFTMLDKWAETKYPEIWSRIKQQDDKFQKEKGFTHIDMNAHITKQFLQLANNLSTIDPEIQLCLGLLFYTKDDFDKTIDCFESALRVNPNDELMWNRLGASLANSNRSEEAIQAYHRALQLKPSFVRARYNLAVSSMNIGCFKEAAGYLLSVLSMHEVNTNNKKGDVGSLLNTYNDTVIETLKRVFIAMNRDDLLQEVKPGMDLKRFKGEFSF

Molecule	targeting priority to peroxisomes (yeast peroxisomes)	import phenotype category (Pex5p^2D cells)	subcellular distribution (pex8Δ cells)	Kd [1]	Kd [2]
Cat2p: carnitine acetyl-CoA transferase ({FITC}-YNENKRKAKL)	high targeting priority	category 3			
Lys1p: saccharopine dehydrogenase ({FITC}-YARVKRSSRL)	high targeting priority	category 3			
Pcs60p: peroxisomal oxalyl-CoA synthetase, PTS1-protein		category 1	mislocalization		
Cta1p: protein mislocalized to the cytosol in pex8Δ cells in a previous study (protein, UniProt P15202 2-515, looked up) Peroxisomal catalase A: SKLGQEKNEVNYSDVREDRVVTNSTGNPINEPFVTQRIGEHGPLLLQDYNLIDSLAHFNRENIPQRNPHAHGSGAFGYFEVTDDITDICGSAMFSKIGKRTKCLTRFSTVGGDKGSADTVRDPRGFATKFYTEEGNLDWVYNNTPVFFIRDPSKFPHFIHTQKRNPQTNLRDADMFWDFLTTPENQVAIHQVMILFSDRGTPANYRSMHGYSGHTYKWSNKNGDWHYVQVHIKTDQGIKNLTIEEATKIAGSNPDYCQQDLFEAIQNGNYPSWTVYIQTMTERDAKKLPFSVFDLTKVWPQGQFPLRRVGKIVLNENPLNFFAQVEQAAFAPSTTVPYQEASADPVLQARLFSYADAHRYRLGPNFHQIPVNCPYASKFFNPAIRDGPMNVNGNFGSEPTYLANDKSYTYIQQDRPIQQHQEVWNGPAIPYHWATSPGDVDFVQARNLYRVLGKQPGQQKNLAYNIGIHVEGACPQIQQRVYDMFARVDKGLSEAIKKVAEAKHASELSSNSKF			mislocalization		
{FITC}-YNENKRKAKL (tyrosine added to the peptide amino-terminus for concentration measurements; the nine carboxy-terminal residues of Cat2p (carnitine acetyl-CoA transferase), S. cerevisiae; An extra N-terminal tyrosine stands before the natural stretch; also called Cat2p peptide; source: synthetic peptide (GenScript)) [Cat2p nonapeptide, FITC-YNENKRKAKL]				896 nM	116 nM
{FITC}-YARVKRSSRL (tyrosine added to the peptide amino-terminus for concentration measurements; the nine carboxy-terminal residues of Lys1p (saccharopine dehydrogenase), S. cerevisiae; An extra N-terminal tyrosine stands before the natural stretch; also called Lys1p peptide; source: synthetic peptide (GenScript)) [Lys1p nonapeptide, FITC-YARVKRSSRL]				3690 nM	88.8 nM
Mdh3p: peroxisomal malate dehydrogenase (protein, UniProt P32419 2-343, looked up) Malate dehydrogenase, …: VKVAILGASGGVGQPLSLLLKLSPYVSELALYDIRAAEGIGKDLSHINTNSSCVGYDKDSIENTLSNAQVVLIPAGVPRKPGLTRDDLFKMNAGIVKSLVTAVGKFAPNARILVISNPVNSLVPIAVETLKKMGKFKPGNVMGVTNLDLVRAETFLVDYLMLKNPKIGQEQDKTTMHRKVTVIGGHSGETIIPIITDKSLVFQLDKQYEHFIHRVQFGGDEIVKAKQGAGSATLSMAFAGAKFAEEVLRSFHNEKPETESLSAFVYLPGLKNGKKAQQLVGDNSIEYFSLPIVLRNGSVVSIDTSVLEKLSPREEQLVNTAVKELRKNIEKGKSFILDSSKL	high targeting priority	category 3			
Fox3p: 3-ketoacyl-CoA thiolase, PTS2 import pathway (protein, UniProt P27796 16-417, looked up) 3-ketoacyl-CoA thiolase, …: AMGKGESKRKNSLLEKRPEDVVIVAANRSAIGKGFKGAFKDVNTDYLLYNFLNEFIGRFPEPLRADLNLIEEVACGNVLNVGAGATEHRAACLASGIPYSTPFVALNRQCSSGLTAVNDIANKIKVGQIDIGLALGVESMTNNYKNVNPLGMISSEELQKNREAKKCLIPMGITNENVAANFKISRKDQDEFAANSYQKAYKAKNEGLFEDEILPIKLPDGSICQSDEGPRPNVTAESLSSIRPAFIKDRGTTTAGNASQVSDGVAGVLLARRSVANQLNLPVLGRYIDFQTVGVPPEIMGVGPAYAIPKVLEATGLQVQDIDIFEINEAFAAQALYCIHKLGIDLNKVNPRGGAIALGHPLGCTGARQVATILRELKKDQIGVVSMCIGTGMGAAAIFIKE			mislocalization		
